“And” between values parts separate entries of the source, which are not always exact repeats. Identical values can stand only once. Like-named read-outs stand apart in the source and are kept apart here.
Assays:
[1] = target: CR8071 lambda light chain L1 of design 2830 (E124K_Y178R); assay: SMCA: H1, L1, H2, L2 co-expressed in CHO-3E7
[2] = target: CR8071 lambda light chain L1 (S180E), designs 2816 and 2827; assay: SMCA, System C, LC-MS
[3] = target: CR8071 lambda light chain L1 (S180E), designs 2816 and 2827; assay: SMCA, System C
[4] = target: CR8071 lambda light chain L1, design 2892 (S176K_Y178K); assay: SMCA: H1,L1,H2,L2 co-expressed, protein A, LC-MS
[5] = target: CR8071 lambda light chain L1, design 2994 (E124Q_T131K); assay: SMCA: H1,L1,H2,L2 co-expressed, protein A, LC-MS
[6] = target: CR8071 lambda light chain L1, design 3025 (E124Q_T131R); assay: SMCA: H1,L1,H2,L2 co-expressed, protein A, LC-MS
[7] = target: CR8071 lambda light chain L1, design 3122 (V133D_Y178T); assay: SMCA: H1,L1,H2,L2 co-expressed, protein A, LC-MS
[8] = target: CR8071 lambda light chain L1, design 3878 (K129T_S180E); assay: SMCA: H1,L1,H2,L2 co-expressed, protein A, LC-MS
[9] = target: CR8071 lambda light chain L1, design 4320 (T116F_K129T_V133D_S176F); assay: SMCA: H1,L1,H2,L2 co-expressed, protein A, LC-MS
[10] = target: His-tagged Influenza B Hemagglutinin (B/Brisbane/60/2008) (Influenza B (B/Brisbane/60/2008))
[11] = target: Pertuzumab kappa light chain L135A (L2), N-terminal HA tag; assay: LCCA, SPR of light chain tags
[12] = target: Pertuzumab kappa light chain, wild type (L2), N-terminal HA tag; assay: LCCA, SPR of light chain tags
[13] = target: CAT-2200 lambda light chain T116F_S176F (L1), N-terminal FLAG tag; assay: LCCA, SPR of light chain tags
[14] = target: Pertuzumab kappa light chain L135A (L2), N-terminal HA tag; assay: LCCA, SPR of light chain tags; remark: listed apart in the source
[15] = target: Pertuzumab kappa light chain L135A_T178F (L2), N-terminal HA tag; assay: LCCA, SPR of light chain tags
[16] = target: Pertuzumab kappa light chain T178F (L2), N-terminal HA tag; assay: LCCA, SPR of light chain tags
[17] = target: Pertuzumab kappa light chain, wild type (L2), N-terminal HA tag; assay: LCCA, SPR of light chain tags; remark: listed apart in the source
[18] = target: Pertuzumab light chain (kappa) V133G_S176D_T180E, HA-tagged; assay: LCCA
[19] = target: Pertuzumab light chain (kappa) V133G_S176D_T178E, HA-tagged; assay: LCCA
[20] = target: Pertuzumab light chain (kappa) V133G_S176D_T180E, HA-tagged; assay: LCCA; remark: listed apart in the source
[21] = target: Pertuzumab light chain (kappa) V133G_S176D_T178E, HA-tagged; assay: LCCA; remark: listed apart in the source
[22] = target: Pertuzumab light chain (kappa) V133G_S176D_T180E, HA-tagged; assay: LCCA; remark: listed apart in the source
[23] = target: Pertuzumab light chain (kappa) Q124E_V133D, HA-tagged; assay: LCCA
[24] = target: Pertuzumab light chain (kappa) Q124E_V133D, HA-tagged; assay: LCCA; remark: listed apart in the source
[25] = target: CAT-2200 light chain (lambda) E124Q_T131K, FLAG-tagged; assay: LCCA
[26] = target: CAT-2200 light chain (lambda) E124Q_T131R, FLAG-tagged; assay: LCCA
[27] = target: SGN-CD19a kappa light chain L2 Q124E_V133D_L135W (design 3972, Systems B and C); assay: SMCA: H1, L1, H2, L2 co-expressed, protein A, LC-MS
[28] = target: SGN-CD19a kappa light chain L2 Q124E_V133D_T180D (design 3971, Systems B and C); assay: as above
[29] = target: SGN-CD19a kappa light chain L2 Q124E_V133D_L135W (design 3972, Systems B and C); assay: as above; remark: listed apart in the source
[30] = target: SGN-CD19a kappa light chain L2 Q124E_V133D_T180D (design 3971, Systems B and C); assay: as above; remark: listed apart in the source
[31] = target: SGN-CD19a kappa light chain L2 of design 2830 (T178E_T180E); assay: SMCA: H1, L1, H2, L2 co-expressed in CHO-3E7
[32] = target: SGN-CD19a kappa light chain L2, design 3025 (S131D_V133G_T178F); assay: SMCA: H1,L1,H2,L2 co-expressed, protein A, LC-MS
[33] = target: SGN-CD19a kappa light chain L2, design 3025 (S131D_V133G_T178F); assay: SMCA: H1,L1,H2,L2 co-expressed, protein A, LC-MS; remark: listed apart in the source
[34] = target: SGN-CD19a kappa light chain L2, design 3122 (S176K_T178K); assay: SMCA: H1,L1,H2,L2 co-expressed, protein A, LC-MS
[35] = target: SGN-CD19a kappa light chain L2, design 3122 (S176K_T178K); assay: SMCA: H1,L1,H2,L2 co-expressed, protein A, LC-MS; remark: listed apart in the source
[36] = target: SGN-CD19a kappa light chain L2, design 3878 (Q124R_Q160K_T178R); assay: SMCA: H1,L1,H2,L2 co-expressed, protein A, LC-MS
[37] = target: SGN-CD19a kappa light chain L2, design 3878 (Q124R_Q160K_T178R); assay: SMCA: H1,L1,H2,L2 co-expressed, protein A, LC-MS; remark: listed apart in the source
[38] = target: SGN-CD19a kappa light chain L2, design 4320 (Q124K_L135A_T178R); assay: SMCA: H1,L1,H2,L2 co-expressed, protein A, LC-MS
[39] = target: SGN-CD19a kappa light chain L2, designs 2892 and 2994 (Q124E_V133D); assay: SMCA: H1,L1,H2,L2 co-expressed, protein A, LC-MS
[40] = target: SGN-CD19a kappa light chain L2, designs 2892 and 2994 (Q124E_V133D); assay: SMCA: H1,L1,H2,L2 co-expressed, protein A, LC-MS; remark: listed apart in the source
[41] = target: SGN-CD19a kappa light chain L2, designs 2892 and 2994 (Q124E_V133D); assay: SMCA: H1,L1,H2,L2 co-expressed, protein A, LC-MS; remark: listed apart in the source
[42] = target: SGN-CD19a kappa light chain L2, designs 2892 and 2994 (Q124E_V133D); assay: SMCA: H1,L1,H2,L2 co-expressed, protein A, LC-MS; remark: listed apart in the source

## CR8071 heavy chain H1 of design 2830 (L143E_K145T_Q179E), full-length with heterodimeric IgG1 Fc
[1]
  % H1L1 Pairing: 28%
  Change in % H1L1 Pairing with respect to wild type: -20.4%

## CR8071 heavy chain H1, design 2816 (Q179K)
[2]
  Change in % H1L1 Pairing with respect to wild type: 17%
[3]
  % H1L1 Pairing: 99.3%

## CR8071 heavy chain H1, design 2827 (S186R)
[2]
  Change in % H1L1 Pairing with respect to wild type: 15.9%
[3]
  % H1L1 Pairing: 98.2%

## CR8071 heavy chain H1, design 2892 (K145T_V177D_S188D)
[4]
  % H1L1 Pairing: 41.5%
  Change in % H1L1 Pairing with respect to wild type: -6.9%

## CR8071 heavy chain H1, design 2994 (L143E_K145T_Q179E)
[5]
  % H1L1 Pairing: 26.3%
  Change in % H1L1 Pairing with respect to wild type: -22.1%

## CR8071 heavy chain H1, design 3025 (L143D_K145T)
[6]
  % H1L1 Pairing: 43.9%
  Change in % H1L1 Pairing with respect to wild type: -4.5%

## CR8071 heavy chain H1, design 3122 (S186K_S188T)
[7]
  % H1L1 Pairing: 65.8%
  Change in % H1L1 Pairing with respect to wild type: -16.5%

## CR8071 heavy chain H1, design 3878 (Q179K)
[8]
  % H1L1 Pairing: 99.3%
  Change in % H1L1 Pairing with respect to wild type: 17%

## CR8071 heavy chain H1, design 4320 (L143K_F174G)
[9]
  % H1L1 Pairing: 96.6%
  Change in % H1L1 Pairing with respect to wild type: 14.3%

## CR8071 wild type one-armed antibody (OAA), FLAG-tagged light chain
[10]
  Kd: 0.332 nM

## CR8071 wild type one-armed antibody (OAA), no tags
[10]
  Kd: 0.385 nM and 0.379 nM

## Pertuzumab Fab heavy chain V190F (H2), ABD2-His6 tagged
[11]
  H2L2:H2L1 normalized median ratio: 42%
  H2L2:H2L1 normalized median scalar value ln(r1/f1): -0.34
[12]
  H2L2:H2L1 normalized median ratio: 65%
  H2L2:H2L1 normalized median scalar value ln(r1/f1): 0.6
[13]
  H2L2:H2L1 normalized median ratio: 29%
[14]
  H2L2:H2L1 normalized median ratio: 44%
  H2L2:H2L1 normalized median scalar value ln(r1/f1): -0.26
[15]
  H2L2:H2L1 normalized median ratio: 60%
  H2L2:H2L1 normalized median scalar value ln(r1/f1): 0.41
[16]
  H2L2:H2L1 normalized median ratio: 71%
  H2L2:H2L1 normalized median scalar value ln(r1/f1): 0.9
[17]
  H2L2:H2L1 normalized median ratio: 62%
  H2L2:H2L1 normalized median scalar value ln(r1/f1): 0.47

## Pertuzumab heavy chain Fab construct L124R_Q179K
[18]
  H2L2:H2L1 normalized median scalar value ln(r1/f1): 0.63
[19]
  H2L2:H2L1 normalized median scalar value ln(r1/f1): 0.77
[20]
  H2L2:H2L1 normalized median scalar value ln(r1/f1): 0.95
[21]
  H2L2:H2L1 normalized median scalar value ln(r1/f1): 0.69
[22]
  H2L2:H2L1 normalized median scalar value ln(r1/f1): 0.97

## Pertuzumab heavy chain Fab construct L124R_S186R
[18]
  H2L2:H2L1 normalized median scalar value ln(r1/f1): 1.21
[19]
  H2L2:H2L1 normalized median scalar value ln(r1/f1): 1.04
[20]
  H2L2:H2L1 normalized median scalar value ln(r1/f1): 1.5
[21]
  H2L2:H2L1 normalized median scalar value ln(r1/f1): 1.18
[22]
  H2L2:H2L1 normalized median scalar value ln(r1/f1): 1.47

## Pertuzumab heavy chain Fab construct L143K
[23]
  H2L2:H2L1 normalized median ratio, H2L2 share: 92%
  H2L2:H2L1 normalized median scalar value ln(r1/f1): 2.48
[24]
  H2L2:H2L1 normalized median ratio, H2L2 share: 91%
  H2L2:H2L1 normalized median scalar value ln(r1/f1): 2.3
[25]
  H2L2:H2L1 normalized median ratio (H2L1 share): 8%
[26]
  H2L2:H2L1 normalized median ratio (H2L1 share): 9%

## Pertuzumab heavy chain Fab construct L143R
[24]
  H2L2:H2L1 normalized median ratio, H2L2 share: 96%
  H2L2:H2L1 normalized median scalar value ln(r1/f1): 3.06
[26]
  H2L2:H2L1 normalized median ratio (H2L1 share): 4%

## SGN-CD19a heavy chain H2 L143R (designs 3971 and 3972, Systems B and C)
[27]
  % H2L2 Pairing: 99.7%
  Change in % H2L2 Pairing with respect to wild type: 45.5%
[28]
  % H2L2 Pairing: 99.3%
  Change in % H2L2 Pairing with respect to wild type: 45.1%
[29]
  % H2L2 Pairing: 99.8%
  Change in % H2L2 Pairing with respect to wild type: 20.2%
[30]
  % H2L2 Pairing: 99.8%
  Change in % H2L2 Pairing with respect to wild type: 20.2%

## SGN-CD19a heavy chain H2 of design 2830 (S186R), full-length with heterodimeric IgG1 Fc
[31]
  % H2L2 Pairing: 99.6%
  Change in % H2L2 Pairing with respect to wild type: 20%

## SGN-CD19a heavy chain H2, design 3025 (S188K)
[32]
  % H2L2 Pairing: 87.9%
  Change in % H2L2 Pairing with respect to wild type: 33.7%
[33]
  % H2L2 Pairing: 99.7%
  Change in % H2L2 Pairing with respect to wild type: 20.1%

## SGN-CD19a heavy chain H2, design 3122 (K145T_V177D_S188D)
[34]
  % H2L2 Pairing: 89.7%
  Change in % H2L2 Pairing with respect to wild type: 52.1%
[35]
  % H2L2 Pairing: 99.8%
  Change in % H2L2 Pairing with respect to wild type: 39.9%

## SGN-CD19a heavy chain H2, design 3878 (L143E_K145T_S188L)
[36]
  % H2L2 Pairing: 28.7%
  Change in % H2L2 Pairing with respect to wild type: -8.9%
[37]
  % H2L2 Pairing: 67.4%
  Change in % H2L2 Pairing with respect to wild type: 7.5%

## SGN-CD19a heavy chain H2, design 4320 (L143E_K145T_Q179E_V190F)
[38]
  % H2L2 Pairing: 81.4%
  Change in % H2L2 Pairing with respect to wild type: 21.5%

## SGN-CD19a heavy chain H2, designs 2892 and 2994 (L143K)
[39]
  % H2L2 Pairing: 94.3%
  Change in % H2L2 Pairing with respect to wild type: 40.1%
[40]
  % H2L2 Pairing: 99.6%
  Change in % H2L2 Pairing with respect to wild type: 20%
[41]
  % H2L2 Pairing: 99.2%
  Change in % H2L2 Pairing with respect to wild type: 45%
[42]
  % H2L2 Pairing: 99.7%
  Change in % H2L2 Pairing with respect to wild type: 20.1%
